Data reported in FireProtDB (doi:10.1021/bi00025a018).

B1: Ribonuclease HI, P0A7Y4 (parent)
chain: MLKQVEIFTDGSCLGNPGPGGYGAILRYRGREKTFSAGYTRTTNNRMELMAAIVALEALKEHCEVILSTDSQYVRQGITQWIHNWKKRGWKTADKKPVKNVDLWQRLDAALGQHQIKWEWVKGHAGHPENERCDELARAAAMNPTLEDTGYQVEV

Variants of: B1
Conditions: Escherichia coli (strain K12), Thermal, CD, NaCl 0.1 M, reversible: yes, structure 2RN2, whole UniProt chain shown
[1] = pH 3, 50.9 °C, glycine-HCl 10 mM
[2] = pH 5.5, 52.5 °C, Sodium acetate 10 mM

Variant	ddG of mutation (higher = less stable) [1] [kcal/mol]	Tm (pH 3, glycine-HCl 10 mM) [°C]	change of melting temperature, mutant - wild type (higher = more stable) (pH 3, glycine-HCl 10 mM) [°C]	unfolding enthalpy (van 't Hoff) (pH 3, glycine-HCl 10 mM) [kcal/mol]	ddG of mutation (higher = less stable) [2] [kcal/mol]	Tm (pH 5.5, Sodium acetate 10 mM) [°C]	change of melting temperature, mutant - wild type (higher = more stable) (pH 5.5, Sodium acetate 10 mM) [°C]	unfolding enthalpy (van 't Hoff) (pH 5.5, Sodium acetate 10 mM) [kcal/mol]
MLKQVEIFTDGSCLGNPGPGGYGAILRYRGREKTFSAGYTRTTNNRMELMAAIVALEALKEHCEVILSTDSQYLRQGITQWIHNWKKRGWKTADKKPVKNVDLWQRLDAALGQHQIKWEWVKGHAGHPENERCDELARAAAMNPTLEDTGYQVEV	-1.1	54.6	3.7	119	-0.9	55.8	3.3	91.2
MLKQVEIFTDGSCLGNPGPGGYAAILRYRGREKTFSAGYTRTTNNRMELMAAIVALEALKEHCEVILSTDSQYVRQGITQWIHNWKKRGWKTADKKPVKNVDLWQRLDAALGQHQIKWEWVKGHAGHPENERCDELARAAAMNPTLEDTGYQVEV	-0.7	53.2	2.3	99.3	-0.5	54.3	1.8	91.8
MLKQVEIFTDGSCLGNPGPGGYGAILRYRGREKTFSAGYTRTTNNRMELMAAIVALEALKEPCEVILSTDSQYVRQGITQWIHNWKKRGWKTADKKPVKNVDLWQRLDAALGQHQIKWEWVKGHAGHPENERCDELARAAAMNPTLEDTGYQVEV	-1	54.3	3.4	110	-1.1	56.6	4.1	102
MLKQVEIFTDGSCLGNPGPGGYGAILRYRGREKTFSAGYTRTTNNRMELMAAIVALEALKEHCEVILSTDSQYVRQGITQWIHNWKKRGWKTADKKPVKNVDLWQRLDAALGQHQIKWEWVKGHAGHPENERCHELARAAAMNPTLEDTGYQVEV	-0.5	53.6	1.7	106	-1.9	59.5	7	107
